Biological target: T1, cpHaloΔ9mer
T1 construct: Large fragment of split, circularly permuted HaloTag7; Made in E. coli; also called cpHalo_9mer; cpHalo156-141
Assay: ITC; 9mer peptide (30 mM) titrated into cpHaloΔ9mer (0.6 mM), HEPES 50 mM pH 7.3, NaCl 50 mM; three independent measurements

T1 sequence (chain, as listed by the source mutant): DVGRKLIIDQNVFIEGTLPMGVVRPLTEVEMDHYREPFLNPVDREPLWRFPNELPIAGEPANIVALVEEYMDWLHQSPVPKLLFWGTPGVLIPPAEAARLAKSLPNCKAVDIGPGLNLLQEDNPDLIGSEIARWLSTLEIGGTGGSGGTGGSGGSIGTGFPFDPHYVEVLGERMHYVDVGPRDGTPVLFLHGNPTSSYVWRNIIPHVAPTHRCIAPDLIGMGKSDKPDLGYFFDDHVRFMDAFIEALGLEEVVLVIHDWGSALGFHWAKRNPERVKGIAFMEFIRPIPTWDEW

Kd: 5.3 mM
B1: 9mer peptide (peptide)
peptide: ARETFQAFR
notes: Free peptide titrated in ITC; also called PEP1
